These results are taken from patent US20230051701A1 (Bristol-Myers Squibb, published 2023).

For assay [1], the target named is T1, full length extracellular domain of human CD73 linked to a His tag (human, UniProt P21589 27-547, glycosylated).
T1 construct: 27-553 is 27-547 plus that tag; also called hCD73-his; CD73-his
T1 sequence: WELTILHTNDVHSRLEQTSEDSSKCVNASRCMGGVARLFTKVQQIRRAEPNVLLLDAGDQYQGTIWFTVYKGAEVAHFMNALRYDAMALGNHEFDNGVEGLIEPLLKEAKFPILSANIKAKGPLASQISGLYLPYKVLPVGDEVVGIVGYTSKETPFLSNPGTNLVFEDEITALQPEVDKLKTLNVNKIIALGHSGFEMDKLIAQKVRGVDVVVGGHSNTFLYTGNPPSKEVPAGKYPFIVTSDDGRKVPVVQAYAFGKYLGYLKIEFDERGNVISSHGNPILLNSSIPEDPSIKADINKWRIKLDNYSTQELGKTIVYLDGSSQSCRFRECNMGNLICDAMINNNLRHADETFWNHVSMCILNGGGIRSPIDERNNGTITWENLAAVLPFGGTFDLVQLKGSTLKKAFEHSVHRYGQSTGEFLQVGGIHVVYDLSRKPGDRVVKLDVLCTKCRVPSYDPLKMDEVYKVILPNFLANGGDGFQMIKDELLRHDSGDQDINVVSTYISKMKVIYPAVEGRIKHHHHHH
In words: SEC-MALS, equimolar mix 5.5 uM mAb + 5.5 uM hCD73-his, peak area. The procedure: The oligomeric state of CD73/antibody complexes were examined by size-exclusion chromatography coupled to an in-line multi-angle light scattering detector (SEC-MALS). Isocratic separations were performed on a Shodex PROTEIN KW-803 column connected to an Prominence Shimadzu UFLC in buffer containing 200 mM K2HPO4, 150 mM NaCl, pH 6.8, containing 0.02% Na azide (0.1 μm filtered) running at 0.5 mL/min. Samples were injected onto the column using a SIL-20AC Prominence Shimadzu autosampler, and data were obtained from three online detectors connected in series: a Prominence SPD-20AD diode array UV/vis spectrophotometer followed by a Wyatt miniDAWN™ TREOS Multi-Angle Light Scattering Detector then a Wyatt Optilab T-rEX Refractive Index Detector. Data were collected and analyzed using Astra (Wyatt) and Labsolutions (Shimadzu) software.
CD73.4 antibodies having the heavy chain constant regions set forth in Table 26 were also tested for formation of high molecular weight complexes by SEC-MALS and DLS experiments, as described in Example 11.

For another assay, the target named is T2, mouse CD73 (mouse, UniProt Q61503 29-551, limits assumed).
T2 sequence (looked up): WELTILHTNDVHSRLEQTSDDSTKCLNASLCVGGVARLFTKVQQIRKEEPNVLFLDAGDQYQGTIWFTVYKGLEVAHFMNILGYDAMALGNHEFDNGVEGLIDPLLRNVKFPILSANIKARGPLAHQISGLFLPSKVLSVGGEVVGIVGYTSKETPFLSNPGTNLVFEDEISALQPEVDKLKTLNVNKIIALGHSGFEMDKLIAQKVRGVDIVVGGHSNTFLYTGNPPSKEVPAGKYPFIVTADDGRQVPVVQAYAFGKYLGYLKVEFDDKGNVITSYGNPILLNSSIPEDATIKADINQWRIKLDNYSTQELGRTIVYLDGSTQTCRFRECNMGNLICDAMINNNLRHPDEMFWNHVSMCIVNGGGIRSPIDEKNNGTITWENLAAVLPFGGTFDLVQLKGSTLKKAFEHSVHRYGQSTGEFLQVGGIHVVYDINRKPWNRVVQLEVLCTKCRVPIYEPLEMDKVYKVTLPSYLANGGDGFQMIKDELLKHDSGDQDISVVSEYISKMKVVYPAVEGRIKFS
In words: SPR study of Example 3A; format not described.

Another assay addresses T3, rat CD73 (rat, UniProt P21588 29-551, limits assumed).
T3 sequence (looked up): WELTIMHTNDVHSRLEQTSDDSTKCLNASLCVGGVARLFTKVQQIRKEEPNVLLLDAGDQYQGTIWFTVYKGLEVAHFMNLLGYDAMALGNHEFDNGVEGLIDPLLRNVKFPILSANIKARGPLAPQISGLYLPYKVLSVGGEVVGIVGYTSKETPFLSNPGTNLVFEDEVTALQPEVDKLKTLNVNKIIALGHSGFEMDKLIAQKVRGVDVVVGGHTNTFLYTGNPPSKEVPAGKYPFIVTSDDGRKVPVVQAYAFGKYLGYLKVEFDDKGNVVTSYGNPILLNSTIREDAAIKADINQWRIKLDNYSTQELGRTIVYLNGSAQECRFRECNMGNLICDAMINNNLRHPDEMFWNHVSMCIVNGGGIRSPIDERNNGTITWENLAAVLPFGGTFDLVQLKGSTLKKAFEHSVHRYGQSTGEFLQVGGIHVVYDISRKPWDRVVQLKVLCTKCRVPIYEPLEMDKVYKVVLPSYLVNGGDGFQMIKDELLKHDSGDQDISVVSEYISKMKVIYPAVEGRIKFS
In words: SPR study of Example 3A; format not described.

Assay [2] has as its target T4, rhCD73 bound to his-tag magnet beads (human, UniProt P21589 27-549, limits assumed).
T4 sequence: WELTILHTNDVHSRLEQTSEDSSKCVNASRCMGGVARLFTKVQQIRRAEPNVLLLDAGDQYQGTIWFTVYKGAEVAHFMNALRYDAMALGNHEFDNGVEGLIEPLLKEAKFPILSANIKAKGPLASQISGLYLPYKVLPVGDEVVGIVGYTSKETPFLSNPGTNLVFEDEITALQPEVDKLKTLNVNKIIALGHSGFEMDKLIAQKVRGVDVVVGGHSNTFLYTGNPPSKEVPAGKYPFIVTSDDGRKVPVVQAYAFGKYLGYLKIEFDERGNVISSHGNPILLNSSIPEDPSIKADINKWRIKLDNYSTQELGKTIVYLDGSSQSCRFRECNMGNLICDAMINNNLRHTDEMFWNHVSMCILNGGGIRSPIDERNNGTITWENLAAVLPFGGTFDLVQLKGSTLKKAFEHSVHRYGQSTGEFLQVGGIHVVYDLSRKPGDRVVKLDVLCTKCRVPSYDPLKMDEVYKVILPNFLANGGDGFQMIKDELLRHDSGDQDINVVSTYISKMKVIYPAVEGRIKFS
In words: cell-based or functional assay.

Assay [3] addresses T5, human CD73 on cells (Calu6, NCI-H292, SK-MEL-24, human tumor cell lines, human B and T cells) (human, UniProt P21589 27-549).
T5 sequence: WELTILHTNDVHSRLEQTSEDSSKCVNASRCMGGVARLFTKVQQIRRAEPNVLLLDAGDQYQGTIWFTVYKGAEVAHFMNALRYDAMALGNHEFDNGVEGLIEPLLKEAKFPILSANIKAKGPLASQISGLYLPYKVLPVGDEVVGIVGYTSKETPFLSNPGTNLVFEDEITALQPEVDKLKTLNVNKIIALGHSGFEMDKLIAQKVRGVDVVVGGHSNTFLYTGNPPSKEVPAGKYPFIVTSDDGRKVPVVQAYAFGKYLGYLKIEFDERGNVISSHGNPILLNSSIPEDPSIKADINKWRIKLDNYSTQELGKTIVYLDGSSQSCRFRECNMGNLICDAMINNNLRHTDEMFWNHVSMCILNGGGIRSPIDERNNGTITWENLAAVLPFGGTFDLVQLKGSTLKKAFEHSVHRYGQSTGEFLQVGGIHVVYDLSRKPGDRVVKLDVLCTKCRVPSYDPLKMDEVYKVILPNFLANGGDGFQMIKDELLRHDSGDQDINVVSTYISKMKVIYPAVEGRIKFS
In words: cell-based or functional assay.

B1: CD73.4-IgG2-C219S (antibody)
heavy: QVQLVESGGGVVQPGRSLRLSCAASGFTFSNYGMHWVRQAPGKGLEWVAVILYDGSNKYYPDSVKGRFTISRDNSKNTLYLQMNSLRAEDTAVYYCARGGSSWYPDSFDIWGQGTMVTVSSASTKGPSVFPLAPCSRSTSESTAALGCLVKDYFPEPVTVSWNSGALTSGVHTFPAVLQSSGLYSLSSVVTVPSSNFGTQTYTCNVDHKPSNTKVDKTVERKSCVECPPCPAPPVAGPSVFLFPPKPKDTLMISRTPEVTCVVVDVSHEDPEVQFNWYVDGVEVHNAKTKPREEQFNSTFRVVSVLTVVHQDWLNGKEYKCKVSNKGLPAPIEKTISKTKGQPREPQVYTLPPSREEMTKNQVSLTCLVKGFYPSDIAVEWESNGQPENNYKTTPPMLDSDGSFFLYSKLTVDKSRWQQGNVFSCSVMHEALHNHYTQKSLSLSPG
light: not shown
notes: also called CD73.4-IgG2CS; CD73.4-IgG2.3
As for B1, the “UV % Peak1 <12.9 min (complexes larger than 4:4 hCD73-his:mAb)” value in assay [1] came out at 37%.

B2: CD73.4-IgG2-C219S-IgG1.1f (antibody)
heavy: QVQLVESGGGVVQPGRSLRLSCAASGFTFSNYGMHWVRQAPGKGLEWVAVILYDGSNKYYPDSVKGRFTISRDNSKNTLYLQMNSLRAEDTAVYYCARGGSSWYPDSFDIWGQGTMVTVSSASTKGPSVFPLAPCSRSTSESTAALGCLVKDYFPEPVTVSWNSGALTSGVHTFPAVLQSSGLYSLSSVVTVPSSNFGTQTYTCNVDHKPSNTKVDKTVERKSCVECPPCPAPPVAGPSVFLFPPKPKDTLMISRTPEVTCVVVDVSHEDPEVKFNWYVDGVEVHNAKTKPREEQYNSTYRVVSVLTVLHQDWLNGKEYKCKVSNKALPSSIEKTISKAKGQPREPQVYTLPPSREEMTKNQVSLTCLVKGFYPSDIAVEWESNGQPENNYKTTPPVLDSDGSFFLYSKLTVDKSRWQQGNVFSCSVMHEALHNHYTQKSLSLSPG
light: not shown
modifications: 94% of the N-terminal glutamine was pyro-Q; 97% of the heavy chains lacked the C-terminal lysine
notes: also called CD73.4-IgG2CS-IgG1.1f
As for B2, in the assay with mouse CD73, the binding result is “no binding”. Further, the binding result with rat CD73 is reported as “no binding”. Besides, the “EC50, recombinant human CD73 enzyme inhibition assay” value in assay [2] fell in the range of 2.9 to 3.1 nM. For the same molecule, in assay [3], the “EC50, blockade of endogenous cellular CD73 in Calu6” value lay in the range of 0.31 to 0.48 nM and the “EC50 for blockade of endogenous cellular CD73 in Calu6” value fell in the range of 0.31 to 0.48 nM.
